# From paper PMC4081072, “Structure and semi-sequence-specific RNA binding of Nrd1”
# T1: Nrd1 307-491 R405A (Saccharomyces cerevisiae, UniProt P53617 307-491, R405A)
# T1 sequence: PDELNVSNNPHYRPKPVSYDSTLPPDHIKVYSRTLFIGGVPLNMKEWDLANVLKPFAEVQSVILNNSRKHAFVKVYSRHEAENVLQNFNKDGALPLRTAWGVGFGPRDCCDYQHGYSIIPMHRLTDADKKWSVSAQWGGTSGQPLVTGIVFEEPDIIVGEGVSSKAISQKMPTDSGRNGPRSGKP
# T2: Nrd1 307-491 G344A (Saccharomyces cerevisiae, UniProt P53617 307-491, G344A)
# T2 sequence: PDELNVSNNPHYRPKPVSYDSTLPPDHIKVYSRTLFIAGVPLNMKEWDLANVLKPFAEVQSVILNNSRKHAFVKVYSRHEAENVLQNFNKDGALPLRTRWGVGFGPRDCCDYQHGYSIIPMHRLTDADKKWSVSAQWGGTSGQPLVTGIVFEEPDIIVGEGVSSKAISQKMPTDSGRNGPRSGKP
# T3: Nrd1 307-491 T340A (Saccharomyces cerevisiae, UniProt P53617 307-491, T340A)
# T3 sequence: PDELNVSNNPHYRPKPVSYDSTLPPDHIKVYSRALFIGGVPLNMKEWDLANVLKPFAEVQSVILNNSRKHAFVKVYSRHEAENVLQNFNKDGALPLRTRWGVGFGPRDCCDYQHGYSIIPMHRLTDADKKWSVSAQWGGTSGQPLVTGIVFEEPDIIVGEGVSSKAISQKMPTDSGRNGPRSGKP
# T4: Nrd1 307-491 Y382A (Saccharomyces cerevisiae, UniProt P53617 307-491, Y382A)
# T4 sequence: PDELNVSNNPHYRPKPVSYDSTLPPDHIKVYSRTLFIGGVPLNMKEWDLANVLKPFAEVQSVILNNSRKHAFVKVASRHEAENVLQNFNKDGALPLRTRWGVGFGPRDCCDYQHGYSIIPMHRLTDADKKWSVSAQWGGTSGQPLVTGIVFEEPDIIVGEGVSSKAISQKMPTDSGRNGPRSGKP
# T5: Nrd1 307-491 D417A (Saccharomyces cerevisiae, UniProt P53617 307-491, D417A)
# T5 sequence: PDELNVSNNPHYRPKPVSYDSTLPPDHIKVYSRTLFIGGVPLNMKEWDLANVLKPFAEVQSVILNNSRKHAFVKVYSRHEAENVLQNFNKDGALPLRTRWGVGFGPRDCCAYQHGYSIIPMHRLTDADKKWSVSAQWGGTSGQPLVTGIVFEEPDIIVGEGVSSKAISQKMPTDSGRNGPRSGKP
# T6: Nrd1 307-491 K435D (Saccharomyces cerevisiae, UniProt P53617 307-491, K435D)
# T6 sequence: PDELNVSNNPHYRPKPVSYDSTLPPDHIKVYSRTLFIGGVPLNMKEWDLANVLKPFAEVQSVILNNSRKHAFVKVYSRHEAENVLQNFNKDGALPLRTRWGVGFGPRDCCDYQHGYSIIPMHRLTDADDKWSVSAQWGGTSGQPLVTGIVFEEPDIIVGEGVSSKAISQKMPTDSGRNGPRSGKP
# Legend:
# Assay in all cases: fluorescence anisotropy; FA: 10 nM RNA, 50 mM sodium phosphate pH 8, 150 mM NaCl, 10 mM beta-mercaptoethanol, 20 C (protein stock in 300 mM NaCl); NMR: same buffer with 300 mM NaCl, 20
# Settings in all cases: protein: recombinant; tags: C-terminal His6; label: 5' fluorescein or TAMRA (FA); unlabeled (NMR)
# [1] = biological target: T1, Nrd1 307-491 R405A
# [2] = biological target: T2, Nrd1 307-491 G344A
# [3] = biological target: T3, Nrd1 307-491 T340A
# [4] = biological target: T4, Nrd1 307-491 Y382A
# [5] = biological target: T5, Nrd1 307-491 D417A
# [6] = biological target: T6, Nrd1 307-491 K435D
binder,measurement,setting,value
GUAA (ssRNA),Kd,[1],17.3 ± 0.9 µM
same,Kd,[2],80.8 ± 2.2 µM
same,Kd,[3],153 ± 32.8 µM
same,Kd,[4],32.1 ± 1.3 µM
same,Kd,[5],17.9 ± 2 µM
same,Kd,[6],16.2 ± 1.7 µM
